Measurements: publication PMC8882007, “Syndapin-2 mediated transcytosis of amyloid-β across the blood–brain barrier” (Brain Communications, 2022)

Experiments:
Assay in all cases: proximity ligation; Duolink PLA between two endogenous proteins in polarized bEnd3 monolayers, fixed in 4% PFA and permeabilized with 0.1% Triton X-100; two primary antibodies overnight at 4°C; PLA signal normalized by the number of nuclei; also in shRNA control (scramble) and syndapin-2 knockdown cells, and after FAM-Aβ (1–40) or Aβ monomers, oligomers or fibrils for 15 min
[1] = target: Rab7 (mouse (endogenous in bEnd3)) (UniProt P51150)
[2] = target: Rab11 (mouse (endogenous in bEnd3)) (UniProt P62492)
[3] = target: Rab5 (mouse (endogenous in bEnd3)) (UniProt Q9CQD1)

Measured: PLA dots per cell (dots per cell)

syndapin-2, sequence (Q9WVE8 whole entry): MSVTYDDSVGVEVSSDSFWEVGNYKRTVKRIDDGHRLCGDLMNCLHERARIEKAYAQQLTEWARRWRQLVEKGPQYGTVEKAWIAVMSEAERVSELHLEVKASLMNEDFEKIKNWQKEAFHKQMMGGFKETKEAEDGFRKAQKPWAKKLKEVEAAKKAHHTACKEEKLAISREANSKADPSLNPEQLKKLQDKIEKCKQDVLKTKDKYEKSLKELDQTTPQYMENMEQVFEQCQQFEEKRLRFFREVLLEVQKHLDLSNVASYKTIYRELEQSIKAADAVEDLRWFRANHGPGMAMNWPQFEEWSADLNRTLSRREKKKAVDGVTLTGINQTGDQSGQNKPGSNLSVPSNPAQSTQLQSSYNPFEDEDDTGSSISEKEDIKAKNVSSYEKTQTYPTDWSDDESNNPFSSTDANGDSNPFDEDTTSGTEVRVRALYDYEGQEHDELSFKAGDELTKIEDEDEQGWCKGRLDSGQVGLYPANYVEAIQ
Rab7 (mouse (endogenous in bEnd3)), sequence (P51150 whole entry): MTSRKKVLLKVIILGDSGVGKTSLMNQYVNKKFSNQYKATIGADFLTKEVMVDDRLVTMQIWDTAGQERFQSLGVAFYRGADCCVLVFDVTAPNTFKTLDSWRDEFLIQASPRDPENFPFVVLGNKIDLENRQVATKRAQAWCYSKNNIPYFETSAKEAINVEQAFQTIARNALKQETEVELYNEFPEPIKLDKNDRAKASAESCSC
Rab11 (mouse (endogenous in bEnd3)), sequence (P62492 whole entry): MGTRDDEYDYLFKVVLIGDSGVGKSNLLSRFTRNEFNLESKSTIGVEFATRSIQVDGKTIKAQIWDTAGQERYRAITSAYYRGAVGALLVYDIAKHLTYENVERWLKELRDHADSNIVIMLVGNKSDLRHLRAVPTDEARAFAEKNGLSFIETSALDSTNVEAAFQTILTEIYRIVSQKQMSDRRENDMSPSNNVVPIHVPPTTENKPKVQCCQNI
Rab5 (mouse (endogenous in bEnd3)), sequence (Q9CQD1 whole entry): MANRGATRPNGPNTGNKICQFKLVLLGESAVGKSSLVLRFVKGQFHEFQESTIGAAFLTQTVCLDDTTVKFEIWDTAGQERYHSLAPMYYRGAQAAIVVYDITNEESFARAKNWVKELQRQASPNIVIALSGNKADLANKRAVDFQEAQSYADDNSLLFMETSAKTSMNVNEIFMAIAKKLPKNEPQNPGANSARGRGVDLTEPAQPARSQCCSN

syndapin-2 (from UniProt Q9WVE8 1-486) (natural protein)
< 20: all assays above
